These sequences were tested on c-Src (assay: phosphorylation enrichment, bacterial display (enrichment ratio); higher = better substrate or ligand; peptides without Tyr show the background).
With TYACSYTPVKA [FLNB_Y708] the phosphorylation enrichment was 2.4. In the case of FASAEYQEALS [GALNS_Y461], the phosphorylation enrichment is reported as 0.485. In the case of DGQFVYKLTDF [TBK1_Y153_S151F], the phosphorylation enrichment is reported as 2.32. For MAHDRYAAICS [OR8H2_Y123], the phosphorylation enrichment was 0.424. Work on IYRASYYRKGG [ALK_Y1282] yielded a phosphorylation enrichment of 0.557. With GGYTRYCDGKK [PROS1_Y266_C265R] the phosphorylation enrichment was 0.338. PLKALYLQQRL [ATM_Y2969_P2974L] was tested, and the phosphorylation enrichment was 0.46. Work on KSEMSCIDGEK [SORBS1_Y485_Y485C] yielded a phosphorylation enrichment of 0.423. Sequence EEQKKYSNAMK [SCN5A_Y1494_Y1495S] has a phosphorylation enrichment of 0.404. NPPGMHPVTGP [LPP_Y346_Y346H] showed a phosphorylation enrichment of 0.358. DKWFLYKMRDI [CPS1_Y879] gave a phosphorylation enrichment of 0.403. Sequence GESSGYLRLAF [MEP1A_Y481_R476G] has a phosphorylation enrichment of 0.459. SFIGQYSGKKE [L1CAM_Y1229] was tested, and the phosphorylation enrichment was 0.374. With DYCDLYGGEKF [PTPN11_Y66_Y63C] the phosphorylation enrichment was 2.39. With WFPFTYVEEDE [VAV3_Y842_S840Y_YF] the phosphorylation enrichment was 0.521. KLNNEHLELNF [MME_Y497_Y497H_YF] gave a phosphorylation enrichment of 0.454. Sequence SSDPDYLAAVD [GLB1_Y154] has a phosphorylation enrichment of 0.55. For RSYSPYDYQPC [TNS1_Y796], the phosphorylation enrichment was 3.15. Sequence PQGVSYIFTID [DCX_Y103_R102S_YF] has a phosphorylation enrichment of 0.486. SVMAEYGLYRA [VSX2_Y219_G223R] was tested, and the phosphorylation enrichment was 6.41. In the case of SASWTYVRWFD [PTDSS1_Y274_P269S], the phosphorylation enrichment is reported as 0.626. GDEEDYYEIPG [EGFR_opt_no-pY_2015] showed a phosphorylation enrichment of 1.32. Sequence AEDEDYESVGA [SYKtide_2014] has a phosphorylation enrichment of 0.616. TLSGIYQYIIA [FOXL2_Y81] was tested, and the phosphorylation enrichment was 4.81. For PGVNFYFRVSA, the phosphorylation enrichment was 0.599. AVLVQYFMEHH [PTPN11_Y80_E76V_YF] gave a phosphorylation enrichment of 0.421. Work on EVQKNYEHLFK [PAM16_Y77] yielded a phosphorylation enrichment of 0.359. Work on GVLKEYGGKVL [CPS1_Y529_V531G] yielded a phosphorylation enrichment of 0.396. For AVDVTYDGHPV [FLNB_Y1020], the phosphorylation enrichment was 2.55. In the case of ITRDIYETDYY [INSR_Y1185_M1180I], the phosphorylation enrichment is reported as 2.76. With EAEALYQTTFQ [KRT73_Y325_K328T] the phosphorylation enrichment was 4.32. LCRFGYANTSE [SI_Y1233_YF] gave a phosphorylation enrichment of 0.405. With NESVDSRATFP [MET_Y1003_Y1003S] the phosphorylation enrichment was 0.48.

The sequences below were run against Fyn (UniProt P06241) in the same assay as above.
Sequence of Fyn (P06241 whole entry, looked up): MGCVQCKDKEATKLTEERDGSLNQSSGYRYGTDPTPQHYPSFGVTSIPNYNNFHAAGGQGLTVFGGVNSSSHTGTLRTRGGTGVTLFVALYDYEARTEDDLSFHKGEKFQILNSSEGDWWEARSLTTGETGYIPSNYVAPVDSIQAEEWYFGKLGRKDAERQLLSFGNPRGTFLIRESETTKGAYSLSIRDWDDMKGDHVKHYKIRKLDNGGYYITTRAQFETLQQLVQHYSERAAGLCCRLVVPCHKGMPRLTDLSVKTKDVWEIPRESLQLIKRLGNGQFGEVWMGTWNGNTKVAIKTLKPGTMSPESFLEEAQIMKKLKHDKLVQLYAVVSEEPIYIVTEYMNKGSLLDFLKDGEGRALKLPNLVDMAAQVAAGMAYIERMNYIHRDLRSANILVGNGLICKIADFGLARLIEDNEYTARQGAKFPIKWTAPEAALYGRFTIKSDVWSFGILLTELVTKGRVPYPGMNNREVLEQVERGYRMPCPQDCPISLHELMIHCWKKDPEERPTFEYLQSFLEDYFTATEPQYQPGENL
In the case of TYACSYTPVKA [FLNB_Y708], the phosphorylation enrichment is reported as 1.25. With FASAEYQEALS [GALNS_Y461] the phosphorylation enrichment was 0.454. Sequence DGQFVYKLTDF [TBK1_Y153_S151F] has a phosphorylation enrichment of 2.44. With MAHDRYAAICS [OR8H2_Y123] the phosphorylation enrichment was 0.437. IYRASYYRKGG [ALK_Y1282] showed a phosphorylation enrichment of 0.513. Sequence GGYTRYCDGKK [PROS1_Y266_C265R] has a phosphorylation enrichment of 0.365. Work on PLKALYLQQRL [ATM_Y2969_P2974L] yielded a phosphorylation enrichment of 0.343. KSEMSCIDGEK [SORBS1_Y485_Y485C] showed a phosphorylation enrichment of 0.431. EEQKKYSNAMK [SCN5A_Y1494_Y1495S] was tested, and the phosphorylation enrichment was 0.377. For NPPGMHPVTGP [LPP_Y346_Y346H], the phosphorylation enrichment was 0.353. DKWFLYKMRDI [CPS1_Y879] was tested, and the phosphorylation enrichment was 0.444. Sequence GESSGYLRLAF [MEP1A_Y481_R476G] has a phosphorylation enrichment of 0.474. Work on SFIGQYSGKKE [L1CAM_Y1229] yielded a phosphorylation enrichment of 0.461. In the case of DYCDLYGGEKF [PTPN11_Y66_Y63C], the phosphorylation enrichment is reported as 1.39. With WFPFTYVEEDE [VAV3_Y842_S840Y_YF] the phosphorylation enrichment was 0.516. KLNNEHLELNF [MME_Y497_Y497H_YF] showed a phosphorylation enrichment of 0.453. For SSDPDYLAAVD [GLB1_Y154], the phosphorylation enrichment was 0.656. Work on RSYSPYDYQPC [TNS1_Y796] yielded a phosphorylation enrichment of 3.66. PQGVSYIFTID [DCX_Y103_R102S_YF] showed a phosphorylation enrichment of 0.729. SVMAEYGLYRA [VSX2_Y219_G223R] showed a phosphorylation enrichment of 7.16. For SASWTYVRWFD [PTDSS1_Y274_P269S], the phosphorylation enrichment was 0.501. Sequence GDEEDYYEIPG [EGFR_opt_no-pY_2015] has a phosphorylation enrichment of 1.19. AEDEDYESVGA [SYKtide_2014] was tested, and the phosphorylation enrichment was 0.586. TLSGIYQYIIA [FOXL2_Y81] was tested, and the phosphorylation enrichment was 6.05. Work on PGVNFYFRVSA yielded a phosphorylation enrichment of 0.653. For AVLVQYFMEHH [PTPN11_Y80_E76V_YF], the phosphorylation enrichment was 0.503. EVQKNYEHLFK [PAM16_Y77] was tested, and the phosphorylation enrichment was 0.398. With GVLKEYGGKVL [CPS1_Y529_V531G] the phosphorylation enrichment was 0.364. Sequence AVDVTYDGHPV [FLNB_Y1020] has a phosphorylation enrichment of 2.3. With ITRDIYETDYY [INSR_Y1185_M1180I] the phosphorylation enrichment was 1.58. With EAEALYQTTFQ [KRT73_Y325_K328T] the phosphorylation enrichment was 3.38. In the case of LCRFGYANTSE [SI_Y1233_YF], the phosphorylation enrichment is reported as 0.419. Sequence NESVDSRATFP [MET_Y1003_Y1003S] has a phosphorylation enrichment of 0.442.

— the supplement of paper PMC10065799, “High-throughput profiling of sequence recognition by tyrosine kinases and SH2 domains using bacterial peptide display” (eLife, 2023)
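Also: 11-residue human phosphosite peptides and single-mutation variants displayed on the E. coli surface, counted by deep sequencing, each peptide's frequency after selection divided by its frequency in the unselected input library; frequency after pTyr selection over input frequency; kinase dosed for 20-30% of maximal phosphorylation in three min.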
